Measured values taken from publication PMC11381232, “Efficient expression and purification of rat CRP in Pichia pastoris” (Frontiers in Immunology, 2024).

B1: rat C-reactive protein purified from rat serum (natural protein, UniProt P48199 20-230, looked up)
chain: HEDMSKQAFVFPGVSATAYVSLEAESKKPLEAFTVCLYAHADVSRSFSIFSYATKTSFNEILLFWTRGQGFSIAVGGPEILFSASEIPEVPTHICATWESATGIVELWLDGKPRVRKSLQKGYIVGTNASIILGQEQDSYGGGFDANQSLVGDIGDVNMWDFVLSPEQINAVYVGRVFSPNVLNWRALKYETHGDVFIKPQLWPLTDCCES
notes: C-reactive protein, rat, endogenous protein from serum; Homopentamer by negative-stain EM and SEC; also called rCRP; rat CRP; source: purified from serum of turpentine-injected Wistar rats (p-Aminophenyl Phosphoryl Choline Agarose, DEAE, SEC)
B2: recombinant rat CRP with C-terminal 6×His tag, secreted from Pichia pastoris GS115 (natural protein, UniProt P48199 20-230, looked up)
chain: B1 chain
notes: C-reactive protein, rat, wild type; the reverse primer ends at ...DCCES followed by GA and six histidines; Secreted by the S. cerevisiae alpha-factor signal of pPIC9K; By the reverse primer a Gly-Ala stands between CRP and the His6 tag; also called rCRP; rCRP-6×His fusion protein; source: P. pastoris GS115, secreted into the culture medium, purified (Ni2+-NTA, p-Aminophenyl Phosphoryl Choline …)
B3: recombinant rat CRP with N-terminal Strep-tag II, secreted from E. coli BL21 (DE3) (natural protein, UniProt P48199 20-230, looked up)
chain: B1 chain
notes: C-reactive protein, rat, wild type, cDNA by NM_017096.3; so no native signal peptide; A bacterial signal peptide stood before the tag for secretion (text: alkaline phosphatase, ALP); also called rCRP; rCRPwt-pET42c

Key:
[1] = molecular target: the molecule itself; experiment: negative-stain electron microscopy; CRP diluted to 0.15-0.3 mg/mL in 20 mM Tris pH 6.8, 150 mM NaCl, 2 mM CaCl2, 1-2 h at 18°C, 1% uranyl acetate; self-association, pentamer
[2] = molecular target: the molecule itself; experiment: SDS-PAGE and Western blot, non-reduced against reduced; yeast-secreted rCRP-6×His without or with 20 mM DTT, anti-His detection; disulfide-linked dimer of subunits

| Protein | stoichiometry N [1] | stoichiometry N [2] |
| --- | --- | --- |
| B1 | 5 | – |
| B2 | 5 | 2 |
| B3 | 5 | – |
